Experimental findings from article PMC9186387 are described below.

The target in data set [1] is C. crescentus full-length DriD (C. crescentus). Description: SEC.
Another data set concerns the target T1, DriD(Y168A) (Caulobacter crescentus, UniProt Q9A999 5-331, Y172A).
T1 sequence: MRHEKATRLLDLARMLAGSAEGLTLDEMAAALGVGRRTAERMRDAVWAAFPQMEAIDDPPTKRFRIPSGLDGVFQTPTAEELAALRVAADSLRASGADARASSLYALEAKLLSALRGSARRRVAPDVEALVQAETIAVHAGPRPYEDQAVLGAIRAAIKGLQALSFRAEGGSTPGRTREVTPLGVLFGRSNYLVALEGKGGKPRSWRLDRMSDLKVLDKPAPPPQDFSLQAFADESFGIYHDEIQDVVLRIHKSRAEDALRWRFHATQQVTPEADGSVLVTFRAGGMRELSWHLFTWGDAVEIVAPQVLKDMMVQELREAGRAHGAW
Description: fluorescence polarization.

Data set [2] has as its target T2, DriD(Y168A-R178A-Y192A-R204A) (Caulobacter crescentus, UniProt Q9A999 5-331, Y172A;R182A;Y196A;R208A).
T2 sequence: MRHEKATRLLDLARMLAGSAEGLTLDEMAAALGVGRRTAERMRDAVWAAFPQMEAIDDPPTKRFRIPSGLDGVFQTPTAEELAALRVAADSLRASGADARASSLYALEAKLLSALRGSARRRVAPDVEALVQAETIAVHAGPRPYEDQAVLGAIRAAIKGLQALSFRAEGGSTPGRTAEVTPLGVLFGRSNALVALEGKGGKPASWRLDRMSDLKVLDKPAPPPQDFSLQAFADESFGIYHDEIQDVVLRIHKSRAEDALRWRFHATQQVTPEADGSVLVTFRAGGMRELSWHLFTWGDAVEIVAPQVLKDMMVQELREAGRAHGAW
Description: fluorescence polarization. (In general: Fluorescence polarisation rises when a labelled molecule tumbles more slowly, as on binding a larger partner.)

Another data set deals with T3, DriD(R176A-R178A) (Caulobacter crescentus, UniProt Q9A999 5-331, R180A;R182A).
T3 sequence: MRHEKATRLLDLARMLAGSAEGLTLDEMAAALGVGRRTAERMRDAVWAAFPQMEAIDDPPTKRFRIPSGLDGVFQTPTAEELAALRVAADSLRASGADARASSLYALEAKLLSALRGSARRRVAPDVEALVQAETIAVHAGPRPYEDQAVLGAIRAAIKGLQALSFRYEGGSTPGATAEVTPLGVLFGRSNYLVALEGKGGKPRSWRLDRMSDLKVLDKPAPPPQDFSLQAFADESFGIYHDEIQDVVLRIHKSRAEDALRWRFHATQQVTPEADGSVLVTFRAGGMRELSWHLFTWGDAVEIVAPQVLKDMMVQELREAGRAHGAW
Description: fluorescence polarization.

The target in data set [3] is T2, DriD(Y168A-R178A-Y192A-R204A). Description: fluorescence polarization. This is another data set of the same source.

Read-outs that look alike come from different tables or passages of the source.

What is called stoichiometry N is a count of units in the complex or per binding partner. For the molecule “C. crescentus full-length DriD (natural protein)”, in data set [1], the stoichiometry N was found to be 2.

B1: DriD operator (optimized) (dsDNA)
DNA 1: ATACGACCGTTTCTGTCGCA
DNA 2: TGCGACAGAAACGGTCGTAT
One may read the Kd as the equilibrium constant for the complex coming apart. The low end stands for a tighter complex, the high end for a looser complex. Regarding B1, the Kd with DriD(Y168A) came out at 22.3 ± 7 nM. The binding result in data set [2] is listed as “no binding”.

B2: 9mer ssDNA (F-labelled) (ssDNA)
DNA: TAGTCTACT
For the molecule B2, the binding result (with DriD(R176A-R178A); in data set [3]) was “no binding” each time.
